B1: Cell cycle serine/threonine-protein kinase CDC5/MSD2 (Saccharomyces cerevisiae), P32562 (parent)
chain: MSLGPLKAINDKQLNTRSKLVHTPIKGNTADLVGKENHFKQTKRLDPNNDHHHQPAQKKKREKLSALCKTPPSLIKTRGKDYHRGHFLGEGGFARCFQIKDDSGEIFAAKTVAKASIKSEKTRKKLLSEIQIHKSMSHPNIVQFIDCFEDDSNVYILLEICPNGSLMELLKRRKVLTEPEVRFFTTQICGAIKYMHSRRVIHRDLKLGNIFFDSNYNLKIGDFGLAAVLANESERKYTICGTPNYIAPEVLMGKHSGHSFEVDIWSLGVMLYALLIGKPPFQARDVNTIYERIKCRDFSFPRDKPISDEGKILIRDILSLDPIERPSLTEIMDYVWFRGTFPPSIPSTVMSEAPNFEDIPEEQSLVNFKDCMEKSLLLESMSSDKIQRQKRDYISSIKSSIDKLEEYHQNRPFLPHSLSPGGTKQKYKEVVDIEAQRRLNDLAREARIRRAQQAVLRKELIATSTNVIKSEISLRILASECHLTLNGIVEAEAQYKMGGLPKSRLPKIKHPMIVTKWVDYSNKHGFSYQLSTEDIGVLFNNGTTVLRLADAEEFWYISYDDREGWVASHYLLSEKPRELSRHLEVVDFFAKYMKANLSRVSTFGREEYHKDDVFLRRYTRYKPFVMFELSDGTFQFNFKDHHKMAISDGGKLVTYISPSHESTTYPLVEVLKYGEIPGYPESNFREKLTLIKEGLKQKSTIVTVD
partner: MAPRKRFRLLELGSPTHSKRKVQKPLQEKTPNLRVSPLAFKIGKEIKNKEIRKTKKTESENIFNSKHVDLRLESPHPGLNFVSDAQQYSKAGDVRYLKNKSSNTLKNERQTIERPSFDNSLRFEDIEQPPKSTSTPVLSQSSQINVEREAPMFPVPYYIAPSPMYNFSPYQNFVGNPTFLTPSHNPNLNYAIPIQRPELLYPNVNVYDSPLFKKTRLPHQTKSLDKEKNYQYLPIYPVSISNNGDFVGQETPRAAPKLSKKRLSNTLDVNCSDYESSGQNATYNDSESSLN

Variants of: B1
Settings: with spo13_yeast SPO13, P23624

Row | effect of a mutation on the interaction | Variant
1 | decreasing interaction | W517A;V518A;L530A

Variants of: B1
Settings: with spo13_yeast SPO13, P23624
Remark: another data set of the same source

Row | effect of a mutation on the interaction | Variant
2 | decreasing interaction | W517A;V518A;L530A
